Reference: US9725518B2, “Antibodies that bind to Jagged 1” (Cancer Research Technology Limited, priority 2013, dated 2017)
Numbering of substitutions follows the chain as printed.

B1: J1-183D variant 1: humanised/de-immunised J1-183D: J1-183D_VL_1 + J1-183D_VH_1 (antibody, V domains shown)
VH: QVQLVQSGAELKKPGASVKVSCKVSGYAFTDYAIHWIRQAPGQGLEWMGIINTYYGDSKYNQKFKDRVTMTVDKSTSTAYMELSSLRSEDTAVYYCARGYDGFAYWGQGTLVTVSSASTKGP
VL: DIQMTQSPSSLSASVGDRVTITCRTSENIYSYLTWYQQKPGKAPKLLVYNAKILAAGVPSRFSGSGSGTDFTLTISSLQPEDFATYYCQHHYDIPWTFGGGTKLEIKRT
B2: J1-183D variant 9: humanised/de-immunised J1-183D: J1-183D_VL_3 + J1-183D_VH_1 (antibody, V domains shown)
VH: B1 VH
VL: B1 VL with V48I, A55D, A56S
B3: J1-183D variant 8: humanised/de-immunised J1-183D: J1-183D_VL_2 + J1-183D_VH_4 (antibody, V domains shown)
VH: B1 VH with L11V, V24A, A28T, I37V, N61A, K65Q, D66G, K74T
VL: B1 VL with V48I, I53T, A56S
B4: J1-65D variant 12: humanised/de-immunised J1-65D: J1-65D_VL_3 + J1-65D_VH_4 (antibody, V domains shown)
VH: QVQLVQSGAEVKKPGSSVKVSCKASGYTFTDYEMHWVRQAPGQGLEWMGAIQPGGGGTAYAQKFQGRVTITADKSTSTAYMELSSLRSEDTAVYYCTRRGYDDYPFAYWGQGTLVTVSSASTKGP
VL: DIQMTQSPSSLSASVGDRVTITCRASGNIHNYLAWYQQKPGKAPKLLIYNAKTLADAVPSRFSGSGSGTDYTLTISSLQPEDFATYYCQHFWSAPWTFGQGTKLEIKRT

Assays:
[1] = tested on: J1-induced Notch signalling; experiment: Luciferase assay, LS174T RBPJ reporter stimulated with J1 protein; assay type: cell-based, human
Experimental: FIG. 9. […] (A) The colorectal cancer cell line LS174T expressing luciferase under the control of Notch co-factor RBPJ was stimulated with mammalian cell-expressed soluble J1 proteins (NE3-Fc and NE12-Fc) or a control protein in the presence of J1 mAbs (10 μg/ml), and luciferase activity was measured. […] (C) Breast cancer MDA-MB-231 cells were cultured with J1 mAbs. The expression level of the Notch target gene HES1 was measured by qPCR using β2m as the control gene. In all experiments the γ-secretase inhibitor DBZ was used as a positive control for pan Notch inhibition and a control mAb (IgG2b or IgG1) or no treatment (NT) were negative controls.
FIG. 20. Inhibition of human Jagged 1/Notch signalling by humanised and de-immunised J1-mAbs in vitro. The colorectal cancer cell line LS174T expressing luciferase under the control of Notch co-factor RbPJ was stimulated with mammalian cell-expressed recombinant J1 protein (NE3-Fc protein, right bar for each treatment) or a control protein (left bar) in the presence of J1 mAbs (10 μg/ml), and luciferase activity was measured. The parental murine monoclonal antibody (Mo), Murine IgG1, DMSO and DBZ were used as controls.
Having established that the J1 mAbs were able to block the binding of the J1 ligand to its receptor N1 their effect on the activity of the Notch signalling pathway was investigated. The human colorectal cancer cell line LS174T, stably expressing a luciferase reporter gene under control of Notch co-factor RBPJ, was stimulated with two forms of immobilised J1 protein: N-terminus to EGF3 and N-terminus to EGF12. […] Importantly, the best two J1 mAbs (J1-65D and J1-183D) were also tested against other Notch ligands in order to verify ligand specificity.
Prior to experiment, clear bottom 96-well plates (CELLSTAR) wells were coated with either J1-ECD fragments (NE3-Fc and NE12-Fc), other Notch-ligands (J2 or DLL4; both from R&D) or control protein (mlgG2b) at the concentration of 5 μg/ml in 0.1% BSA-PBS (overnight incubation at 4° C.). LS174T colorectal cancer cells, expressing the luciferase gene under control of the Notch cofactor RbPJ, were then plated (4×10^4 cells/well) in the presence of different mAbs (10 μg/ml) or DBZ (100 nM). Luciferase activity was then quantified 24 hours later using the Bright-Glo Luciferase Assay System (Promega).

[2] = tested on: murine Hes1 (N1 signalling mediated via mJ1); experiment: Hes1 qPCR in B16F10 cells stably expressing murine J1; assay type: cell-based, mouse; conditions: mAb 10 μg/ml, DBZ 100 nM, 7 days
Experimental: FIG. 10. […] (A) Mouse melanoma B16F10 cells stably expressing murine J1 were cultured with 10 μg/ml of each J1 mAb, or an IgG1 control antibody, for 7 days with fresh mAb supplemented every 2 days. The γ-secretase inhibitor DBZ (100 nM) was used as a control for Notch inhibition. Cells were harvested, total RNA extracted and cDNA was synthesised. Murine Hes1 expression levels were detected by real-time PCR normalised against GAPDH. […] (B) Human breast cancer (MDA-MB-231) and primary endothelial cells (HUVEC) were cultured over plates coated with recombinant rat Jagged1 (rrJag1-Fc) or a control protein (mIgG1) in the presence of 10 μg/ml of J1 mAbs or isotype control Ab. 24 hours later cells were harvested, total RNA extracted and cDNA was synthesised. Expression of the human Notch-target genes HES1 and HEY2 was analysed by real-time PCR and β2-microglobulin was used as control gene. Results from one representative experiment are shown. […]
Total RNA from cell cultures/spheroids was isolated using RNeasy mini kit (Qiagen, UK) according to the manufacturer's instructions. […] Quantitative PCR (qPCR) analysis was performed in triplicate using the SYBR GreenER qPCR SuperMix Universal (Invitrogen) and Chromo4 fluorescence detector (MJ Research, USA). Relative quantification was done using the ΔΔCt method normalizing to β2-microglobulin gene or murine β-Actin expression. […]

[3] = molecular target: T1, N1 binding to cell surface expressed hJ1 (Homo sapiens, UniProt P78504); experiment: Notch binding blocking assay (FACS): N1 EGF11-13 beads staining human J1-expressing cells; set-up: key: +: Complete blocking; X: No blocking
T1 construct: cell expressed full length human J1 (hJ1; HEK293 transfectants); expressed in transfected cells; host or cells: HEK293
T1 sequence (P78504 34-1218): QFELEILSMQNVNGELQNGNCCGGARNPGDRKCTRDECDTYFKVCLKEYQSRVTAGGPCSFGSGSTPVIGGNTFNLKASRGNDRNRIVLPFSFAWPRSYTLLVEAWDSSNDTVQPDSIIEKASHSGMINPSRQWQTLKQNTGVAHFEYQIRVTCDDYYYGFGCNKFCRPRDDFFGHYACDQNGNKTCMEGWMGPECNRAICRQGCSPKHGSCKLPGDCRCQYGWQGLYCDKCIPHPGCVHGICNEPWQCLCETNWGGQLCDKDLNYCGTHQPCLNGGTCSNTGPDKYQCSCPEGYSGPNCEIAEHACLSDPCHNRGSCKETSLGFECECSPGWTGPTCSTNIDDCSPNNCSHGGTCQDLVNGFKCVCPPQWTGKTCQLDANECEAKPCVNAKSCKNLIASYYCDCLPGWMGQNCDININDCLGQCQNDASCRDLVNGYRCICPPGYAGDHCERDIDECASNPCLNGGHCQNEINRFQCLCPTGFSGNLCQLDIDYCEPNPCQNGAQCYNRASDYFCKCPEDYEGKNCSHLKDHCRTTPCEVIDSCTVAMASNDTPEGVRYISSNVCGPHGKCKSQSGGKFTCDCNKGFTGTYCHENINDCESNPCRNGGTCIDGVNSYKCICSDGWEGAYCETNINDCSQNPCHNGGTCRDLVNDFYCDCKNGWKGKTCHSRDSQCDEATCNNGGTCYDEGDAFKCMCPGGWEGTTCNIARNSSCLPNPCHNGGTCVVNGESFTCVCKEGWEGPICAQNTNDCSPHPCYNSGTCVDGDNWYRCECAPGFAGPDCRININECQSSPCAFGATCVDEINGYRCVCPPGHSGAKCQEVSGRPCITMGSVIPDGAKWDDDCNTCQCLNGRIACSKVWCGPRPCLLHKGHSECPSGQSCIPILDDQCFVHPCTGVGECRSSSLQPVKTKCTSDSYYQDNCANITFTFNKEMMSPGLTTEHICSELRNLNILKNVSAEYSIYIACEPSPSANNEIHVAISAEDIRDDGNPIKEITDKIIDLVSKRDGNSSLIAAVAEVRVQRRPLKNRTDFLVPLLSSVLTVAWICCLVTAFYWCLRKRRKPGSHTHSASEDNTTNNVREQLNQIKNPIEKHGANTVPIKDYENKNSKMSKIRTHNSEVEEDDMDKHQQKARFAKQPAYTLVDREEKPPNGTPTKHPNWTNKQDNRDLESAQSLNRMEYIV
In short: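 E. coli-expressed, refolded human N1 EGF11-13 (411-526), biotinylated on avidin-coated fluorescent beads, stained human J1-transfected HEK293 cells with hybridoma supernatant or purified antibody diluted in HBSS/10% FCS. Purified mAbs titrated in dilution series; bead binding read by flow cytometry.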

MDA-MB-231 spheroids = experiment: Spheroid assay (3-D growth), MDA-MB-231; assay type: cell-based, human; conditions: humanised variants 5 μg/ml
Text: Similar findings were also reported for the Merck anti-N1 mAbs when tested on the LS-1034 cell line. As cell-cell contact is required to activate Notch signalling a spheroid-based 3-D growth model was used to test the ability of the J1 mAbs to block tumour growth. Furthermore, the 3-D model better mimics in vivo conditions including hypoxia and acidosis, allowing evaluation of the mAbs effect in a more realistic setting. Spheroids were generated from MDA-MB-231 breast cancer cells and the ability of different concentrations of the J1-65D mAb to inhibit their growth was evaluated.
Cells were harvested and resuspended in 2.5% Matrigel (BD)-complete DMEM medium. Cell suspension was plated on low-adherence 96-well plates (Corning) (200 μl/well) and spheroids, of approximately fixed cell number (5×10^3 cells for MDA-MB-231 and MDA-MB-468 cell lines; 2×10^3 for MCF7 cells) were then generated by spinning plates at 1800 rpm for 10 minutes. The following day, pictures of the spheroids were taken (day 1) and treatments were added (mAbs were used at 10 μg/ml [5 μg/ml for humanised antibodies] while DBZ was used at the concentration of 100 nM). In some experiments Paclitaxel (1 nM) and Doxorubicin (20 nM) were used in combination with J1-65D mAb treatment. Every 2 days pictures were taken and half of the medium was replaced with fresh one containing mAb/drug. At the end of the experiment, spheroids were either lysed for RNA extraction, were processed and paraffin-embedded for immunohistochemical analysis or were dissociated by pipetting and trypsinization into single cell suspensions for FACS analysis. Spheroid size was evaluated by image analysis using ImageJ software.

[4] = Soluble aggregates of transiently expressed antibodies; assay type: physicochemical; conditions: Protein A purified antibody
Text: The protein yield of these antibodies, their levels of soluble aggregates and their binding affinity to the immunogen (J1-DE3) are illustrated in (Table 6).

[5] = humanised/chimeric mAbs 10 μg/ml, NE3-Fc, DBZ control
[6] = final antibody concentration 0.2 μg/ml
[7] = final antibody concentration 0.4 μg/ml
[8] = final antibody concentration 0.6 μg/ml
[9] = final antibody concentration 1.0 μg/ml

Molecule | inhibition of J1-induced luciferase activity ([1]; NE3-Fc and NE12-Fc, mAbs 10 μg/ml, DBZ 100 nM) | inhibition of J1-induced luciferase activity [1, 5] | repression of murine Hes1 expression [2] | Blocking of Notch1 binding to cell surface Jagged 1 [3, 6] | Blocking of Notch1 binding to cell surface Jagged 1 [3, 7] | Blocking of Notch1 binding to cell surface Jagged 1 [3, 8] | Blocking of Notch1 binding to cell surface Jagged 1 [3, 9] | spheroid growth inhibition (MDA-MB-231 spheroids) | % soluble aggregate [4] [%]
C[C@H](NC(=O)Cc1cc(F)cc(F)c1)C(=O)N[C@@H]1C(=O)N(C)c2ccccc2-c2ccccc21 [DBZ, reference compound] | blocked | blocked | Repression of Hes1 expression was observed | – | – | – | – | – | –
B1 | – | inhibited as effectively as by the parental murine mAb | – | X | + (Complete blocking) | + (Complete blocking) | + (Complete blocking) | most comparable efficacy to the original murine antibody | 3.65
B2 | – | inhibited as effectively as by the parental murine mAb | – | X | + (Complete blocking) | + (Complete blocking) | + (Complete blocking) | increasingly less effect | 3.49
B3 | – | inhibited as effectively as by the parental murine mAb | – | X | + (Complete blocking) | + (Complete blocking) | + (Complete blocking) | increasingly less effect | 0.93
B4 | – | inhibited as effectively as by the parental murine mAb | – | X | + (Complete blocking) | + (Complete blocking) | + (Complete blocking) | slightly reduced ability to inhibit spheroid growth | 0.47
